Data taken from the PETadex activity labels (doi:10.1074/jbc.m109.041285).
Numbering of substitutions follows the chain as printed.

B1: unnamed (protein)
chain: MSKVDLWQDATAQAELVRSGEISRTELLEATIAHVQAVNPEINAVIIPLFEKARRESELASGPFAGVPYLLKDLTVVSQGDINTSSIKGMKESGYRADHDAYFVQRMRAAGFVLLGKTNTPEMGNQVTTEPEAWGATRNPWNLGRSVGGSSGGSGAAVAAALSPVAHGNDAAGSVRIPASVCGVVGLKPTRGRISPGPLVTDSDNVAGAAHEGLFARSVRDIAALLDVVSGHRPGDTFCAPTASRPYAQGISENPGSLRVGVLTHNPVGDFALDPECAAAARGAAAALAALGHDVNDAYPEALGDRSFLKDYSTIGDVAIAREIERNGELIGRPLTEDDVEWTSWEMVKRADQVTGRAFAACVDELRYYAGKVERWWEAGWDLLILPTVTRQTPEIGELMLAKGTDLEGRQSAFISGSLQMLAFTVPFNVSGQPAISLPIGMSSDGMPIGVQIVAAYGREDLLLQVAAQLEGALPWVARRPQLLNPSRKIPAA
B2: unnamed (protein)
chain: B1 chain with G316D
B3: unnamed (protein)
chain: B1 chain with N125A, G316C
B4: unnamed (protein)
chain: B1 chain with G316A
B5: unnamed (protein)
chain: B1 chain with G316S
B6: unnamed (protein)
chain: B1 chain with G316C

Substrate: Acd (paper fig)
Conditions: 30 °C

Protein | Km | kcat | kcat/Km
B1 | 3.66 mM | 9.15 s⁻¹ | 2500 M⁻¹ s⁻¹
B2 | 19 mM | 0.14 s⁻¹ | 7.37 M⁻¹ s⁻¹
B3 | 13.2 mM | 1.12 s⁻¹ | 84.8 M⁻¹ s⁻¹
B4 | 0.85 mM | 0.71 s⁻¹ | 835 M⁻¹ s⁻¹
B5 | 1.8 mM | 4.83 s⁻¹ | 2680 M⁻¹ s⁻¹
B6 | 3.51 mM | 4.97 s⁻¹ | 1420 M⁻¹ s⁻¹
